The numbers were not newly measured in article PMC9434060 (Heliyon, 2022), which cites them from elsewhere.

The conditions of this series: hIntL-1, ligand not given; ref [10].

B1: hIntL-1: Human intelectin-1, disulfide-linked trimeric lectin (protein, UniProt Q8WWA0 19-298, looked up)
Intelectin-1: TDEANTYFKEWTCSSSPSLPRSCKEIKDECPSAFDGLYFLRTENGVIYQTFCDMTSGGGGWTLVASVHENDMRGKCTVGDRWSSQQGSKAVYPEGDGNWANYNTFGSAEAATSDDYKNPGYYDIQAKDLGIWHVPNKSPMQHWRNSSLLRYRTDTGFLQTLGHNLFGIYQKYPVKYGEGKCWTDNGPVIPVVYDFGDAQKTASYYSPYGQREFTAGFVQFRVFNNERAANALCAGMRVTGCNTEHHCIGGGGYFPEASPQQCGDFSGFDWSGYGTHVGYS
As to B1, the Kd is 85 ± 14 nM.

Usually Kd stands for the free concentration of one partner at which half of the binding sites on the other are occupied at equilibrium, for simple one-to-one binding.
